For assay [1], the target named is GFP only (eGFP expressed from the pcDNA3.1(+)-N-eGFP backbone without gene insertion). Put plainly: single-molecule pull-down (SiMPull) with GFP photobleaching step counting; diluted NP40 lysate (1:100-1:10,000 in T50: 10 mM Tris-Cl pH 8.0, 50 mM NaCl) of transfected SH-SY5Y cells flowed over a PEG/neutravidin surface with biotinylated anti-GFP antibody; 488 nm TIRF, room temperature; photobleaching steps counted per spot; 30% dimers subtracted for GFP self-dimerisation; cells without or with 0.4 M sorbitol 4 h (also arsenite) before lysis.

The target in assay [2] is T1, Fused in sarcoma (FUS) wildtype with N-terminal GFP tag, P35637.
T1 chain: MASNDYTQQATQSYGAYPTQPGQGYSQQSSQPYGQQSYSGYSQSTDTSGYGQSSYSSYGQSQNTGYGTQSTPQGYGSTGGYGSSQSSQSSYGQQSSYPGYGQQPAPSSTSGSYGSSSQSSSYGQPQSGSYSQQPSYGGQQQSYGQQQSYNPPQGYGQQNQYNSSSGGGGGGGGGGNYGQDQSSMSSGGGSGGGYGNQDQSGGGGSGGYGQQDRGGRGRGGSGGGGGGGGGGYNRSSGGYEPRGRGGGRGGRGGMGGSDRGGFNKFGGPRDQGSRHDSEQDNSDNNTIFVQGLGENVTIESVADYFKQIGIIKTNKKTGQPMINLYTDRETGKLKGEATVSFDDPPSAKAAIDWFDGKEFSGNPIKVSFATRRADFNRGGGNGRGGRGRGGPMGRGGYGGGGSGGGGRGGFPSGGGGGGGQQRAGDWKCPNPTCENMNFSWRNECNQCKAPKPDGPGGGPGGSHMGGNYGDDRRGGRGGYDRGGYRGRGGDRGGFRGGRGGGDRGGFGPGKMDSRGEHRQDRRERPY
Put plainly: single-molecule pull-down (SiMPull) with GFP photobleaching step counting; diluted NP40 lysate (1:100-1:10,000 in T50: 10 mM Tris-Cl pH 8.0, 50 mM NaCl) of transfected SH-SY5Y cells flowed over a PEG/neutravidin surface with biotinylated anti-GFP antibody; 488 nm TIRF, room temperature; photobleaching steps counted per spot; 30% dimers subtracted for GFP self-dimerisation; cells without or with 0.4 M sorbitol 4 h …. The conditions noted are these: remark: other sources report otherwise.

Regarding “GFP only (eGFP expressed from the pcDNA3.1(+)-N-eGFP backbone without gene insertion)”, in assay [1], the percent dimers amounted to 30% and the percent monomers was 70%.

B1: Fused in sarcoma (FUS) wildtype with N-terminal GFP tag, P35637 1-526 (natural protein)
chain: T1 chain
In assay [2], B1 showed an average photobleaching step (after subtracting the GFP self-dimer fraction) of 1.5 steps and an increase in average photobleaching steps with sorbitol stress of 0.5 steps.

(Values after paper PMC10139993.)
